In doi:10.1101/2024.09.17.612794 (bioRxiv, 2024):

T1: full-length Transportin-1 (Trn1), wild type (human, UniProt Q92973 1-898)
T1 sequence (looked up): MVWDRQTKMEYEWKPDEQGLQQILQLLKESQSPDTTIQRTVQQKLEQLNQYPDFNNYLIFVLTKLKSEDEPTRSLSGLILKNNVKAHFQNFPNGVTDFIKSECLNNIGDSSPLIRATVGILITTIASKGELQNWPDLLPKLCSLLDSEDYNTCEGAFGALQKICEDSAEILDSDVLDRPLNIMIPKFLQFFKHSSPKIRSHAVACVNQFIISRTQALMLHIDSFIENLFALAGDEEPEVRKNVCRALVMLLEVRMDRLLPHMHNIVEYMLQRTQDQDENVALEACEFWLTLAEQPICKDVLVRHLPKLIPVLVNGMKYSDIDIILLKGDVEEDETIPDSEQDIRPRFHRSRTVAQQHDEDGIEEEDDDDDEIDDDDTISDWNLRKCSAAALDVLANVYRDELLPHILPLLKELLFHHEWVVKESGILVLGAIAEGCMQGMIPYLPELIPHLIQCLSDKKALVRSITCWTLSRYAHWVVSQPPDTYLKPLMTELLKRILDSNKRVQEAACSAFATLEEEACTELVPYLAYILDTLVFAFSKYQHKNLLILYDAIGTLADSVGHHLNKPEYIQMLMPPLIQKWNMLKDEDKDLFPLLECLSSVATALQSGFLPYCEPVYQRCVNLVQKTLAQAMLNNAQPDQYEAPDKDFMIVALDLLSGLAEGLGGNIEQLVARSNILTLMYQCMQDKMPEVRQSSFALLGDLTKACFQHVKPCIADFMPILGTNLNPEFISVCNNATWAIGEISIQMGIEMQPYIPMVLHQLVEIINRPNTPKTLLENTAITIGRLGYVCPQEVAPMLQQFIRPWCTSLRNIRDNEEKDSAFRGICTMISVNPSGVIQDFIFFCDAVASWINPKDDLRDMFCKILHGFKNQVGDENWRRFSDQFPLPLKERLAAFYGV

T2: Trn1Δloop (HEAT repeat 8 loop replaced with the GGSGGSG linker) (human, UniProt Q92973 1-343; Q92973 376-898)
T2 chain: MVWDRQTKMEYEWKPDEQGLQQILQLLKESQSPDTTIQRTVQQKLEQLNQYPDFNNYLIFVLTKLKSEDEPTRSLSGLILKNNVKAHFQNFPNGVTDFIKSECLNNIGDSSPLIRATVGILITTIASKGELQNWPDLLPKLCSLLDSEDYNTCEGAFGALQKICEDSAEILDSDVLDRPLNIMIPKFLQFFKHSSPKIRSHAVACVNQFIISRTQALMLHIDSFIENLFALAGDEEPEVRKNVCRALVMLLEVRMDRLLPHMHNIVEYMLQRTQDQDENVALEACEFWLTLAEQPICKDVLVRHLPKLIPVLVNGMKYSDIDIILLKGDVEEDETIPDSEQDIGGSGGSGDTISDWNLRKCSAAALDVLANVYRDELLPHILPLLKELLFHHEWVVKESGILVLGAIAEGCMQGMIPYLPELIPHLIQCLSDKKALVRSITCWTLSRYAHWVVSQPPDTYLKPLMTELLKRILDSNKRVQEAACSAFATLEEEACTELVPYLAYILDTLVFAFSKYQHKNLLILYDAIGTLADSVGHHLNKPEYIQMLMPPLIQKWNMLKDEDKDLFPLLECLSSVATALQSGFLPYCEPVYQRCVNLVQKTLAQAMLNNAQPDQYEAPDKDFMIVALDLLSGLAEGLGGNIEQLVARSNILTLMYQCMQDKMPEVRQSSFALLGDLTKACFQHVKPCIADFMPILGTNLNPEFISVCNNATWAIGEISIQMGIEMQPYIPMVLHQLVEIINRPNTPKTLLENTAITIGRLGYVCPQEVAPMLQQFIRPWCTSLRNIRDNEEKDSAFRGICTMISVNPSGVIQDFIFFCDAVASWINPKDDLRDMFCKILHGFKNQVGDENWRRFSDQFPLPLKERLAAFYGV


Assays:
[1] = target: T1, full-length Transportin-1 (Trn1), wild …; assay: ITC
[2] = target: T1, full-length Transportin-1 (Trn1), wild …; assay: SEC-MALS
[3] = target: T2, Trn1Δloop (HEAT repeat 8 loop replaced …); assay: SEC-MALS

Binder | Kd [1] [nM] | stoichiometry N [2] [molar ratio] | stoichiometry N [3] [molar ratio]
PPARγ (DHL), residues 102-505, purified (domain or fragment, human, UniProt P37231-1 102-505, looked up) YQSAIKVEPASPPYYSEKTQLYNKPHEEPSNSLMAIECRVCGDKASGFHYGVHACEGCKGFFRRTIRLKLIYDRCDLNCRIHKKSRNKCQYCRFQKCLAVGMSHNAIRFGRMPQAEKEKLLAEISSDIDQLNPESADLRALAKHLYDSYIKSFPLTKAKARAILTGKTTDKSPFVIYDMNSLMMGEDKIKFKHITPLQEQSKEVAIRIFQGCQFRSVEAVQEITEYAKSIPGFVNLDLNDQVTLLKYGVHEIIYTMLASLMNKDGVLISEGQGFMTREFLKSLRKPFGDFMEPKFEFAVKFNALELDDSDLAIFIAVIILSGDRPGLLNVKPIEDIQDNLLQALELQLKLNHPESSQLFAKLLQKMTDLRQIVTEHVQLLQVIKKTETDMSLHPLLQEIYKDLY | 200 | 1 | 1
PPARγ (DBD), residues 135-209, purified (domain or fragment, human, UniProt P37231-1 135-209, looked up) MAIECRVCGDKASGFHYGVHACEGCKGFFRRTIRLKLIYDRCDLNCRIHKKSRNKCQYCRFQKCLAVGMSHNAIR | – | 1 | 1
